Source: article PMC5704011
One block for each binder: values may come before it.

Experiments:
Conditions in all cases: remark: other sources report otherwise
[1] = molecular target: T1, human recombinant VEGFR2 (human), P35968; assay: SPR; BIAcore 3000, 25 °C, CM5 chip; receptor immobilised by amine coupling (~200-500 R.U.); ligand injected at 10, 20 and 40 nM, 30 uL/min, 10 min dissociation; HBS-EP pH 7.4 (10 mM HEPES, 3 mM EDTA, 150 mM NaCl, 0.005% TWEEN-20); angiopoietin-4 reference cell subtracted; global 1:1 Langmuir fit; χ2-to-Rmax > 1.0 or negative association curves taken as no true interaction
T1 chain: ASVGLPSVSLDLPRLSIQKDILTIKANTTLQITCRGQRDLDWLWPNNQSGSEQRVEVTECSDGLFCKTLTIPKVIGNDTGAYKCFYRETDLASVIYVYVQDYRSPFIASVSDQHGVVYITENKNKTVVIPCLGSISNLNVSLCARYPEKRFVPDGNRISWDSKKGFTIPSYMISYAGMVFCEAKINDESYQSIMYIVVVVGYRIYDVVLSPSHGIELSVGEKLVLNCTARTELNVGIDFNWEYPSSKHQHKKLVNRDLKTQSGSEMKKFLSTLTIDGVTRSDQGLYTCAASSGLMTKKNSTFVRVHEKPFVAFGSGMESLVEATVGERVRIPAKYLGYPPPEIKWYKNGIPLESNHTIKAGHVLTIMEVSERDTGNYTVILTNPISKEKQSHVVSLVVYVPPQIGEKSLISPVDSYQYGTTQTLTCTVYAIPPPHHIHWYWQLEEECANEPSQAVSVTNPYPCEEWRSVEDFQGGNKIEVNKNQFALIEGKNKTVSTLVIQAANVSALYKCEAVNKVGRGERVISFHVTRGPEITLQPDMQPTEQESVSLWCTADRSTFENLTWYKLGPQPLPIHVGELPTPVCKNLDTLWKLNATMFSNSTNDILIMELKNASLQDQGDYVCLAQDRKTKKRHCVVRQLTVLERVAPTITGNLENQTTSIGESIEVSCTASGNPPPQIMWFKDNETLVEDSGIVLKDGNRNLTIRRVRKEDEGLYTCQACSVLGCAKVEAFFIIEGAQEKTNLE

[2] = molecular target: T2, human recombinant PDGFRβ (human), P09619; assay: SPR; BIAcore 3000, 25 °C, CM5 chip; receptor immobilised by amine coupling (~200-500 R.U.); ligand injected at 40, 20 and 10 nM in HBS-EP pH 7.4 (10 mM HEPES, 3 mM EDTA, 150 mM NaCl, 0.005% TWEEN-20); angiopoietin-4 reference cell subtracted; global 1:1 Langmuir fit; χ^2-to-Rmax < 1.0 taken as a true interaction
T2 chain: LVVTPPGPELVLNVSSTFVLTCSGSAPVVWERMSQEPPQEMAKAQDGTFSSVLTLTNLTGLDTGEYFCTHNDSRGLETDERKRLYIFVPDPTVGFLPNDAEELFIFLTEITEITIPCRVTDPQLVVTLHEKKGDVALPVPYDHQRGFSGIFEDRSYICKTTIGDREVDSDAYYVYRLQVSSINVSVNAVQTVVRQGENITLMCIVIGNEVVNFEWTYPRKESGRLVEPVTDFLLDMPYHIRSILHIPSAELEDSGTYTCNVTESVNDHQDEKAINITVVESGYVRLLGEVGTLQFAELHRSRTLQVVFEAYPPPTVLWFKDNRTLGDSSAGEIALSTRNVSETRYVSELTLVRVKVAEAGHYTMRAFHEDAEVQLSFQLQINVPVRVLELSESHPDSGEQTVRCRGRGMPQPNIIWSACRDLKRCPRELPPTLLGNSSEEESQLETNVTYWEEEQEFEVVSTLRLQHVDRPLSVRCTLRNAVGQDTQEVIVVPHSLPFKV

[3] = molecular target: T1, human recombinant VEGFR2 (human), P35968; assay: as above

koff [1]: 2.6e-05 s⁻¹
kon [1]: 36000 M⁻¹ s⁻¹
B1: human recombinant PDGF-CC, Q9NRA1 23-345 (ligand)
chain: VVDLNLLTEEVRLYSCTPRNFSVSIREELKRTDTIFWPGCLLVKRCGGNCACCLHNCNECQCVPSKVTKKYHEVLQLRPKTGVRGLHKSLTDVALEHHEECDCVCRGSTGG
modifications: here or on the partner: disulfide-linked homodimer; limits not given, active growth factor domain after cleavage at Arg234 taken by convention

Kd [2]: 1.9 nM
Kd [3]: 0.07 nM
B2: human recombinant PDGF-CC, Q9NRA1 235-345 (ligand)
chain: B1 chain
